In patent publication US12553037B2, “Engineered class 2, type V repressor systems” (Scribe Therapeutics Inc., priority 2021, dated 2026):

B1: DOMAIN_26749: KRAB domain derived from the king cobra, Ophiophagus hannah; SEQ ID NO: 57755 (protein)
chain: STPVTFEDVVVYFTAAEWVHLTNWQRDFYQAVMMETYELVASVAGDGVPMAEDEEGGVERPVWQYIPRGKRRRKTPQPRAD
modifications: Ophiophagus hannah
B2: 316 scaffold: chimeric gRNA scaffold, SEQ ID NO: 59352, 89 nucleotides (nucleic acid)
guide: ACUGGCGCUUCUAUCUGAUUACUCUGAGCGCCAUCACCAGCGACUAUGUCGUAGUGGGUAAAGCUCCCUCUUCGGAGGGAGCAUCAGAG
modifications: listed as RNA, further chemistry not given here

How the values were obtained:
[1] = tested on: HBEGF locus; format: cell-based, human; conditions: abundance of KRAB domain before vs after selection; 2 ng/mL diphtheria toxin for 48 hours; spacer 34.28; HEK293T
[2] = Editing assays comparing gRNA scaffolds 316 and 174

Row | Molecule | log2(fold change) [1] | performance in editing assays relative to gRNA scaffold 174 [2]
1 | B1 | highest log2(fold change) | –
2 | B2 | – | perform comparably or more favorably than gRNA scaffold 174
